# Laboratory results reported in the supplement of paper PMC9732359.
# ± gives the uncertainty stated by the source.
# Assay: protein stability index of a GFP-peptide fusion (yeast GPS) (PSI 1-4); higher = more stable; sorted into four equal gates, so the index is relative within each strain
# Outline: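 Tiled yeast protein peptides of 17 residues were each joined downstream of GFP, on plasmids that also express Cherry. The pooled library was maintained in yeast, and mid-log cultures in leucine-free medium were sorted into four equal gates on the GFP/Cherry ratio. Plasmids from every gate were amplified by PCR and sequenced on Illumina, with barcodes linking reads to strains. The protein stability index of a peptide is its gate-number-weighted read frequency summed over the gates.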
sequence,measurement,setting,value
IRDPLTQTGLLQDLEEA [RPC82],protein stability index,doa10∆,3.31 ± 0.23
same,protein stability index,pdr5∆,3.2 ± 0.17
same,protein stability index,san1∆,3.15 ± 0.28
VLEERERGQKVKNVKNS [ARP9],protein stability index,doa10∆,2.71 ± 0.19
same,protein stability index,pdr5∆,2.25 ± 0.078
same,protein stability index,san1∆,2.71 ± 0.12
same,protein stability index,ubr1∆,1.19 ± 0.074
YASFNDTFVHVTDLSGK [RPS14B],protein stability index,doa10∆,2.31 ± 0.098
same,protein stability index,pdr5∆,2.88 ± 0.08
same,protein stability index,san1∆,2.52 ± 0.084
same,protein stability index,ubr1∆,2.73 ± 0.094
KLHMGTEDVRLAPELNQ [RPL31B],protein stability index,doa10∆,2.81 ± 0.061
same,protein stability index,pdr5∆,3 ± 0.067
same,protein stability index,san1∆,2.86 ± 0.049
same,protein stability index,ubr1∆,3.05 ± 0.04
SLSFGSGSAGANPAGAS [YJL041W/NSP1],protein stability index,doa10∆,2.92 ± 0.13
same,protein stability index,pdr5∆,2.89 ± 0.13
same,protein stability index,san1∆,2.75 ± 0.18
same,protein stability index,ubr1∆,3.1 ± 0.085
KVISEILTREVQNSTLA [RPS1B],protein stability index,doa10∆,2.51 ± 0.11
same,protein stability index,pdr5∆,2.86 ± 0.1
same,protein stability index,san1∆,2.64 ± 0.069
same,protein stability index,ubr1∆,2.32 ± 0.059
KIFIAVVWYQRLTMGNV [RRI2],protein stability index,doa10∆,1.3 ± 0.044
same,protein stability index,pdr5∆,1.25 ± 0.038
same,protein stability index,san1∆,1.28 ± 0.082
same,protein stability index,ubr1∆,1.27 ± 0.036
YSRSVDKEWVFAALSDS [SSN2],protein stability index,doa10∆,1.44 ± 0.088
same,protein stability index,pdr5∆,1.25 ± 0.06
same,protein stability index,san1∆,1.41 ± 0.12
same,protein stability index,ubr1∆,1.3 ± 0.043
FSAPIRPDIVHTVFTSV [RPL4A],protein stability index,doa10∆,1.7 ± 0.056
same,protein stability index,pdr5∆,2.07 ± 0.057
same,protein stability index,san1∆,1.73 ± 0.094
same,protein stability index,ubr1∆,2.16 ± 0.056
NRSVVYFKLDLTSDLVY [RRI2],protein stability index,doa10∆,1.37 ± 0.14
same,protein stability index,pdr5∆,1.92 ± 0.28
same,protein stability index,ubr1∆,1.39 ± 0.078
SVMDPITSKRKAELLLK [DIS3],protein stability index,doa10∆,2.83 ± 0.088
same,protein stability index,pdr5∆,2.76 ± 0.12
same,protein stability index,san1∆,2.55 ± 0.12
same,protein stability index,ubr1∆,2.85 ± 0.085
SIDNDFSEEKAEEFDFN [YAR002W/NUP60],protein stability index,doa10∆,3.19 ± 0.14
same,protein stability index,pdr5∆,3.02 ± 0.11
same,protein stability index,san1∆,3.17 ± 0.092
same,protein stability index,ubr1∆,3.12 ± 0.1
NNIFKEFTSKIGFTIKE [SMC1],protein stability index,doa10∆,2.34 ± 0.054
same,protein stability index,pdr5∆,2.69 ± 0.063
same,protein stability index,san1∆,2.76 ± 0.1
same,protein stability index,ubr1∆,2.7 ± 0.046
MASRVDETTVPSYYYYV [ROX3],protein stability index,doa10∆,1.48 ± 0.07
same,protein stability index,pdr5∆,2.24 ± 0.05
same,protein stability index,san1∆,1.94 ± 0.096
same,protein stability index,ubr1∆,1.94 ± 0.069
TKRLGTPESVKPANASH [RGR1],protein stability index,doa10∆,2.37 ± 0.08
same,protein stability index,pdr5∆,2.63 ± 0.077
same,protein stability index,san1∆,2.26 ± 0.11
same,protein stability index,ubr1∆,2.76 ± 0.095
TIVLSLNVKCTRNPDAP [RPC40],protein stability index,doa10∆,1.66 ± 0.091
same,protein stability index,pdr5∆,2.14 ± 0.18
same,protein stability index,san1∆,2.91 ± 0.13
SNRCIVFSKKEPFPHSK [CSN12],protein stability index,doa10∆,2.58 ± 0.052
same,protein stability index,pdr5∆,2.85 ± 0.047
same,protein stability index,san1∆,2.81 ± 0.065
same,protein stability index,ubr1∆,2.72 ± 0.043
DDALHAKKLPNGNWEVG [DIS3],protein stability index,doa10∆,3.3 ± 0.098
same,protein stability index,pdr5∆,3.12 ± 0.083
same,protein stability index,san1∆,2.94 ± 0.057
same,protein stability index,ubr1∆,3.05 ± 0.057
GSSSIIYYDSYIHLAYS [SSN2],protein stability index,doa10∆,2.56 ± 0.11
same,protein stability index,pdr5∆,2.61 ± 0.12
same,protein stability index,san1∆,2.7 ± 0.068
same,protein stability index,ubr1∆,2.79 ± 0.28
ASLNALKESIKNSTSSM [RPN1],protein stability index,doa10∆,3.07 ± 0.087
same,protein stability index,pdr5∆,3.25 ± 0.098
same,protein stability index,san1∆,3.06 ± 0.063
same,protein stability index,ubr1∆,3.16 ± 0.076
TSAIEVLVGSCAYTGTG [RPN1],protein stability index,doa10∆,3.06 ± 0.067
same,protein stability index,pdr5∆,3.35 ± 0.062
same,protein stability index,san1∆,3.29 ± 0.06
same,protein stability index,ubr1∆,3.28 ± 0.093
SSNVQQPQQQLGDMENN [RTT102],protein stability index,doa10∆,3.21 ± 0.19
same,protein stability index,pdr5∆,3.29 ± 0.12
same,protein stability index,san1∆,3.11 ± 0.088
same,protein stability index,ubr1∆,3.21 ± 0.17
EKELKIFTDAGRVYRPL [RPB2],protein stability index,doa10∆,3.04 ± 0.067
same,protein stability index,pdr5∆,3.44 ± 0.082
same,protein stability index,san1∆,3.09 ± 0.063
same,protein stability index,ubr1∆,3.34 ± 0.042
GSQIKFIVVPDLLKNAP [SMD3],protein stability index,doa10∆,2.05 ± 0.052
same,protein stability index,pdr5∆,2.13 ± 0.047
same,protein stability index,san1∆,1.8 ± 0.055
same,protein stability index,ubr1∆,1.8 ± 0.038
RSSRLHIVYSLLVNPDI [YML103C/NUP188],protein stability index,doa10∆,1.57 ± 0.047
same,protein stability index,pdr5∆,2.01 ± 0.05
same,protein stability index,san1∆,1.87 ± 0.075
same,protein stability index,ubr1∆,2.26 ± 0.05
DSPFSLICQNNLNAFVD [SRP72],protein stability index,doa10∆,2.98 ± 0.069
same,protein stability index,pdr5∆,3 ± 0.055
same,protein stability index,san1∆,2.85 ± 0.05
same,protein stability index,ubr1∆,2.92 ± 0.046
VGGCKDQIEKLREVVEL [RPT1],protein stability index,doa10∆,3.37 ± 0.071
same,protein stability index,pdr5∆,3.4 ± 0.063
same,protein stability index,san1∆,3.4 ± 0.048
same,protein stability index,ubr1∆,3.33 ± 0.061
QVVLGGTSKYLINGHRA [SMC2],protein stability index,doa10∆,2.88 ± 0.059
same,protein stability index,pdr5∆,3.19 ± 0.066
same,protein stability index,san1∆,2.97 ± 0.062
same,protein stability index,ubr1∆,2.96 ± 0.065
MSRSLANGIINVKEITE [SMC3],protein stability index,doa10∆,2.63 ± 0.092
same,protein stability index,pdr5∆,2.8 ± 0.073
same,protein stability index,san1∆,2.77 ± 0.12
same,protein stability index,ubr1∆,2.87 ± 0.064
VPAVVDDPLENMFGDYS [SNF6],protein stability index,doa10∆,3.09 ± 0.14
same,protein stability index,pdr5∆,3.48 ± 0.12
same,protein stability index,san1∆,2.85 ± 0.17
same,protein stability index,ubr1∆,3.35 ± 0.11
SNMILGSVELSTGDYTF [YML103C/NUP188],protein stability index,doa10∆,2.48 ± 0.055
same,protein stability index,pdr5∆,2.35 ± 0.065
same,protein stability index,san1∆,2.16 ± 0.077
same,protein stability index,ubr1∆,2.43 ± 0.037
VWNYTFMGTAFNQEGDY [PRP8],protein stability index,pdr5∆,3.09 ± 0.19
same,protein stability index,san1∆,2.73 ± 0.28
QCYKIYDLVILKSGLPL [YMR129W/POM152],protein stability index,pdr5∆,2.04 ± 0.12
same,protein stability index,san1∆,2.25 ± 0.14
same,protein stability index,ubr1∆,1.29 ± 0.059
EFETPTFLVSNDDEVSQ [RPN14],protein stability index,doa10∆,2.69 ± 0.092
same,protein stability index,pdr5∆,2.89 ± 0.084
same,protein stability index,san1∆,2.72 ± 0.079
same,protein stability index,ubr1∆,2.77 ± 0.13
PFKGEVVDGTVVSCSQH [RPB7],protein stability index,doa10∆,3.04 ± 0.14
same,protein stability index,pdr5∆,3.08 ± 0.1
same,protein stability index,san1∆,2.92 ± 0.088
same,protein stability index,ubr1∆,2.56 ± 0.12
SSLRNQELLNAETLCFT [RPN3],protein stability index,doa10∆,2.89 ± 0.11
same,protein stability index,pdr5∆,3.02 ± 0.15
same,protein stability index,san1∆,3.22 ± 0.065
same,protein stability index,ubr1∆,3.11 ± 0.091
YIEEKHPTIYESLPQYV [POP4],protein stability index,doa10∆,2.33 ± 0.044
same,protein stability index,pdr5∆,2.39 ± 0.048
same,protein stability index,san1∆,1.91 ± 0.052
same,protein stability index,ubr1∆,2.06 ± 0.045
ARAPKYASKAVPHYNRL [RPL25],protein stability index,doa10∆,2.94 ± 0.078
same,protein stability index,pdr5∆,3 ± 0.065
same,protein stability index,san1∆,2.79 ± 0.052
same,protein stability index,ubr1∆,2.98 ± 0.047
ARKYLQTRWGLPSGRQD [FAS2],protein stability index,doa10∆,2.54 ± 0.087
same,protein stability index,pdr5∆,2.09 ± 0.12
same,protein stability index,san1∆,2.12 ± 0.14
same,protein stability index,ubr1∆,3.16 ± 0.11
GSSALADNKEDVKKPFS [YLR335W/NUP2],protein stability index,doa10∆,3.48 ± 0.099
same,protein stability index,pdr5∆,3.16 ± 0.067
same,protein stability index,san1∆,3.06 ± 0.06
same,protein stability index,ubr1∆,3.21 ± 0.062
QLEGFESRKAFFLGYMI [RPB2],protein stability index,doa10∆,1.22 ± 0.088
same,protein stability index,pdr5∆,2.42 ± 0.075
same,protein stability index,san1∆,1.41 ± 0.079
same,protein stability index,ubr1∆,2.49 ± 0.045
LIIRCRVVRPKSLDAET [RPO21],protein stability index,doa10∆,2.35 ± 0.11
same,protein stability index,pdr5∆,2.52 ± 0.09
same,protein stability index,san1∆,2.22 ± 0.13
same,protein stability index,ubr1∆,2.51 ± 0.19
TSTKDKNSSTSNTEPIP [MED1],protein stability index,doa10∆,3.17 ± 0.058
same,protein stability index,pdr5∆,3.27 ± 0.061
same,protein stability index,san1∆,3.21 ± 0.046
same,protein stability index,ubr1∆,3.16 ± 0.041
SVDDVLSALDHIGHSAL [DPB4],protein stability index,doa10∆,3.26 ± 0.2
same,protein stability index,pdr5∆,3.53 ± 0.18
same,protein stability index,san1∆,3.27 ± 0.083
same,protein stability index,ubr1∆,3.46 ± 0.069
LVDQGFNYSGKDMLYSG [RET1],protein stability index,doa10∆,3.46 ± 0.084
same,protein stability index,pdr5∆,3.29 ± 0.083
same,protein stability index,san1∆,3.36 ± 0.052
same,protein stability index,ubr1∆,3.52 ± 0.044
KIKPYVRSFSKALDELK [LRP1],protein stability index,doa10∆,2.52 ± 0.04
same,protein stability index,pdr5∆,2.95 ± 0.037
same,protein stability index,san1∆,2.35 ± 0.047
same,protein stability index,ubr1∆,2.68 ± 0.027
HNLHPQIGQVPLAPAPI [SNF5],protein stability index,doa10∆,2.54 ± 0.062
same,protein stability index,pdr5∆,2.23 ± 0.065
same,protein stability index,san1∆,2.56 ± 0.059
same,protein stability index,ubr1∆,2.76 ± 0.063
CRLFFTELASKDNAIYN [YCS4],protein stability index,doa10∆,1.3 ± 0.077
same,protein stability index,pdr5∆,1.51 ± 0.055
same,protein stability index,san1∆,1.1 ± 0.16
same,protein stability index,ubr1∆,1.32 ± 0.047
ETERLISQSQLGKFKNI [SIN4],protein stability index,doa10∆,3.09 ± 0.13
NKFHKSIREDILECDLL [SIR2],protein stability index,doa10∆,2.73 ± 0.058
same,protein stability index,pdr5∆,2.91 ± 0.066
same,protein stability index,san1∆,3 ± 0.049
same,protein stability index,ubr1∆,3.08 ± 0.06
LFVCNKDPDVPLVLLQQ [POP3],protein stability index,doa10∆,2.57 ± 0.082
same,protein stability index,pdr5∆,2.32 ± 0.077
same,protein stability index,san1∆,2.26 ± 0.11
same,protein stability index,ubr1∆,2.27 ± 0.058
EKSTQLQQKHELDTASR [YGR119C/NUP57],protein stability index,doa10∆,2.95 ± 0.044
same,protein stability index,pdr5∆,3.06 ± 0.039
same,protein stability index,san1∆,2.85 ± 0.029
same,protein stability index,ubr1∆,3.21 ± 0.031
AQASEEENDLQQKLNTR [REC8],protein stability index,doa10∆,2.96 ± 0.26
